According to publication PMC3759425, “Insights into the Cross-Immunity Mechanism within Effector Families of Bacteria Type VI Secretion System from the Structure of StTae4-EcTai4 Complex” (PLoS ONE, 2013):

B1: EcTai4 (type VI amidase immunity 4 from Enterobacter cloacae), residues 19-117 (domain or fragment)
chain: QTLPDISTFSQQQIFENWVQNRCIGKIADSKSLKEDADASAAAWLEASNLPAENFEKADEVIVSLLKQKVGGTEPGHYQILKCTLIANSDAIRPLKSSK
notes: Tai4, type VI amidase immunity 4, E. cloacae, residues 19-117 without the N-terminal 18-residue signal peptide, amplified from genomic DNA; pET21a; Se-Met-labelled protein was used for the crystal structure; The construct of the His-EcTai4 of the pull-down is not described on its own; also called His-EcTai4; His-tag EcTai4; source: E. coli BL21 (DE3), co-expressed with StTae4, purified (crystal, …)

Assays:
[1] = target: the molecule itself; test: SAXS; purified complex in solution at 1, 3 and 5 mg/ml; theoretical curve of one tetramer of the crystal fitted to the experimental data, discrepancy 1.625
[2] = target: B1; test: as above; settings: both partners purified

B1
stoichiometry N [1]: 2

B2: StTae4 (type VI amidase effector 4 from Salmonella typhimurium) (enzyme)
chain: MNRPSFNEAWLAFRKVNHSVADVGSIIGGNVGKNITGGYFQNACPIRMSYVLNATGFPIARNSPYAKVSGADNKFYIYRVNDMIDYLTHTMGKPDLIVNNPKQSDFIGKKGIIVVKGHGWSNARGHVTLWNGSICSDQCHLLNDPDNGPFVPEVGTLWILP
notes: Tae4, type VI amidase effector 4, S. Typhimurium, full length, amplified from genomic DNA; cloned into NcoI/XhoI of pET28at-plus (introduces an N-terminal TEV cleavage site); Se-Met-labelled protein was used for the crystal structure; The vector adds an N-terminal TEV cleavage site; the pull-down methods call the effectors 'native effector proteins'; source: E. coli BL21 (DE3), co-expressed with …
stoichiometry N [2]: 2 Tae4 molecules per Tai4 homodimer
